Read-outs that look alike come from different tables or passages of the source. Where a SMILES comes first, the peptide text is derived from it. [ ]: non-standard residue; d: D form. The star is where a group is joined. Sta = CC(C)C[C@H](N)[C@@H](O)CC(=O)O; Isovaleryl = CC(C)CC(=O)*
Key:
[1] = test system: protease of the present invention; format: biochemical, Fusarium sp. strain BLB; conditions: for Relative Activity (%): pH 5
[2] = Synthetic substrate method, substrate specificity; format: biochemical; conditions: substrate Bz-L-Arg-pNA
fibrin = assay: Fibrin plate method; format: biochemical, bovine
Hammarsten casein = assay: Casein method; format: biochemical; conditions: final purified product of Example 2
Method: A 0.5 ml quantity of sample (protease solution) is added to 1.5 ml of Hammarsten casein solution, prepared using 100 mM boric acid buffer (pH 10) so as to have a final concentration of 1 wt. %, and a reaction is carried out at 37° C. for 10 minutes. The reaction is terminated by adding 2 ml of 0.44 M trichloroacetic acid solution. After allowing the reaction mixture to stand for 20 minutes, the precipitate is filtered off. Five milliliters of 0.44 M aqueous sodium carbonate solution and 1 ml of phenol reagent (containing, per 100 ml, 9.1 g of sodium tungstate dihydrate, 2.3 g of sodium molybdate dihydrate, 4.5 ml of phosphoric acid, 9.1 ml of hydrochloric acid, and 13.6 g of lithium sulfate) are added in that order. After allowing the resulting mixture to stand for 20 minutes, the absorbance at an absorption wavelength of 660 nm is measured. In the above measurement, the amount of enzyme that liberates, per minute, an acid-soluble protein hydrolysate corresponding to 1 μg of tyrosine is defined as 1 unit.

[3] = substrate H-D-Ile-Pro-Arg-pNA, taken as 100
[4] = substrate H-D-Val-Leu-Lys-pNA; H-D-Ile-Pro-Arg-pNA taken as 100
[5] = substrate Suc-Ala-Ala-Pro-Leu-pNA; H-D-Ile-Pro-Arg-pNA taken as 100
[6] = substrate Suc-Ala-Ala-Pro-Phe-pNA; H-D-Ile-Pro-Arg-pNA taken as 100
[7] = substrate Gle-Phe-pNA; H-D-Ile-Pro-Arg-pNA taken as 100
mice = assay: Acute toxicity test on mice

For `c1ccc(-c2ccccn2)nc1` [2,2′-Bipyridyl], the “Relative Activity (%)” value [1] was 97%.

With `CC(C)C[C@H](NC(=O)[C@H]1O[C@@H]1C(=O)O)C(=O)NCCCCN=C(N)N` [E-64, t-epoxysuccinyl-L-leucylamide(4-guanidino)butane] the “Relative Activity (%)” value [1] was 97%.

For `O=C(O)CN(CCN(CC(=O)O)CC(=O)O)CC(=O)O` [EDTA, ethylenediaminetetraacetic acid], the “Relative Activity (%)” value [1] was 100%.

For `O=S(=O)(F)Cc1ccccc1` [PMSF, phenylmethylsulfonyl fluoride], the “inhibition of the protease (in words)” value [1] was “inhibited” and the “Relative Activity (%)” value [1] was 59%.

In the case of `CC(C)CC(=O)N[C@H](C(=O)N[C@H](C(=O)N[C@@H](CC(C)C)[C@@H](O)CC(=O)N[C@@H](C)C(=O)N[C@@H](CC(C)C)[C@@H](O)CC(=O)O)C(C)C)C(C)C` [Pepstatin] (Isovaleryl-VV[Sta]A[Sta]-OH), the “Relative Activity (%)” value [1] is reported as 100%.

In the case of `c1cnc2c(c1)ccc1cccnc12` [Phenanthroline], the “Relative Activity (%)” value [1] is reported as 100%.

For `NCCCCCC(=O)O` [ε-ACA, ε-aminocaproic acid], the “Relative Activity (%)” value [1] was 100%.

For Chimostatin, the “Relative Activity (%)” value [1] was 100%.

With Streptomyces pepsin inhibitor [SPI] the “Relative Activity (%)” value [1] was 100%.

B1: protease of the present invention: novel trypsin-type serine protease from Fusarium sp. strain BLB, about 27000 on SDS-PAGE, amino acid sequence SEQ ID NO: 1 (protein, listed as Fusarium sp.)
chain: MVKFATIVALVAPLVAARPQDRPLIVGGTAASAGDFPFIVSISYQGGPWCGGTLLNANTVLTAAHCTSGRAASAFQVRAGSLNRNSGGVTSSVSSIRIHPSFSSSTLNNDVSILKLSTPIASSSTISYGRLAASGSDPAAGSSATVAGWGATAQGSPSSPVALRKVTIPIVSRATCRAQYGTSAITTNMFCAGLEEGGKDSCQGDSGGPIVDTSNTVIGIVSWGEGCAQPNFSGVYARVGTLRSYIDGQL
In the case of B1, the “degrading activity on synthetic substrate (in words)” value [2] is reported as “has degrading activity”, the “Relative Activity (%)” value ([2]; H-D-Ile-Pro-Arg-pNA taken as 100) is reported as 2.8% and the “fibrinolytic activity (in words)” value (fibrin) is reported as “strong fibrinolytic activity”. For the same molecule, the “protease activity by the casein method” value (Hammarsten casein) was 634 U/mg, the “Relative Activity (%)” value [3] was 100% and the “Relative Activity (%)” value [4] was 21%. For the same molecule, the “Relative Activity (%)” value [5] was 0%, the “Relative Activity (%)” value [6] was 0% and the “Relative Activity (%)” value [7] was 0%. The “safety in acute toxicity test” value (mice) was “demonstrated the safety”.

B2: soybean trypsin inhibitor (protein)
chain: DFVLDNEGNPLENGGTYYILSDITAFGGIRAAPTGNERCPLTVVQSRNELDKGIGTIISSPYRIRFIAEGHPLSLKFDSFAVIMLCVGIPTEWSVVEDLPEGPAVKIGENKDAMDGWFRLERVSDDEFNNYKLVFCPQQAEDDKCGDIGISIDHDDGTRRLVVSKNKPLVVQFQKLDKESL
With B2 the “inhibition of the protease (in words)” value [1] was “not inhibited” and the “Relative Activity (%)” value [1] was 100%.

B3: Streptomyces subtilisin inhibitor (protein)
chain: DAPSALYAPSALVLTVGKGVSATTAAPERAVTLTCAPGPSGTHPAAGSACADLAAVGGDLNALTRGEDVMCPMVYDPVLLTVDGVWQGKRVSYERVFSNECEMNAHGSSVFAF
In the case of B3, the “Relative Activity (%)” value [1] is reported as 100%.

Reference: patent US20090155239A1, “Novel Protease, Microorganism Producing the Same, and Application Thereof” (SODX CO., LTD., priority 2005, published 2009)
